Test results from PMC11005391, “Tetramerization is essential for the enzymatic function of the Pseudomonas aeruginosa virulence factor UDP-glucose pyrophosphorylase” (mBio, 2024).

Columns and labels:
[1] = target: the molecule itself; assay: cell-based or functional assay
[2] = target: the molecule itself; assay: native gel or EMSA; blue native PAGE, uniform 12% polyacrylamide gel with 3.5% stacking gel, 13.5 ug of each protein loaded, Coomassie-stained bands
[3] = target: the molecule itself; assay: SEC; Superdex 200 10/300 GL, 50 mM Tris-HCl pH 8.0, 300 mM NaCl, 10 mM MgCl2; oligomeric state calculated from elution volumes of proteins of known size; addition of UTP, Glc-1-P or UDP-Glc did not affect the oligomerization of the WT
Q9I291 = assay: as above

Row | Protein | In vitro activity (% of WT), EnzChek pyrophosphate assay, forward reaction [1] | stoichiometry N [2] | stoichiometry N [3] | N of the monomer peak (minor peak) (Q9I291) | N of a minor peak [3]
1 | PaUGP N32A (enzyme, UDP-glucose pyrophosphorylase of Pseudomonas aeruginosa (galU), residues 1-279, point mutant of Strep-PaUGP; Same construct as m1; source: E. coli BL21(DE3), purified (Strep-Tactin Sepharose); not shown: Strep-tagII, N-terminal, kept) MIKKCLFPAAGYGTRFLPATKAMPKEMLPVVAKPLIQYAVEEALEAGLSEIGIVTGRGKRSLEDHFDISYELEHQIRNTDKEKYLVGIRRLIDECTFAYTRQVEMKGLGHAILTGRPLIGDEPFAVVLADDLCLNLEGDSVLKQMVKLYNQFRCSIVAIQEVPPEETNKYGVIAGEMIRDDIFRVNTMVEKPKPEEAPSNLAIIGRYILTPDIFDLIEQTEPGKGGEIQITDALMKQAQDGCVLAYKFKGKRFDCGSAEGYIEATNFCYENLYKTGKAH | 56.2 % of WT | 4 | 4.4 | 1.1 | –
2 | PaUGP D67N (enzyme, UDP-glucose pyrophosphorylase of Pseudomonas aeruginosa (galU), residues 1-279, point mutant of Strep-PaUGP; Same construct as m1; source: E. coli BL21(DE3), purified (Strep-Tactin Sepharose); not shown: Strep-tagII, N-terminal, kept) MIKKCLFPAAGYGTRFLPATKAMPKEMLPVVNKPLIQYAVEEALEAGLSEIGIVTGRGKRSLEDHFNISYELEHQIRNTDKEKYLVGIRRLIDECTFAYTRQVEMKGLGHAILTGRPLIGDEPFAVVLADDLCLNLEGDSVLKQMVKLYNQFRCSIVAIQEVPPEETNKYGVIAGEMIRDDIFRVNTMVEKPKPEEAPSNLAIIGRYILTPDIFDLIEQTEPGKGGEIQITDALMKQAQDGCVLAYKFKGKRFDCGSAEGYIEATNFCYENLYKTGKAH | 2.54 % of WT | – | 2.1 | – | 3.8
3 | PaUGP E63A (enzyme, UDP-glucose pyrophosphorylase of Pseudomonas aeruginosa (galU), residues 1-279, point mutant of Strep-PaUGP; Same construct as m1; source: E. coli BL21(DE3), purified (Strep-Tactin Sepharose); not shown: Strep-tagII, N-terminal, kept) MIKKCLFPAAGYGTRFLPATKAMPKEMLPVVNKPLIQYAVEEALEAGLSEIGIVTGRGKRSLADHFDISYELEHQIRNTDKEKYLVGIRRLIDECTFAYTRQVEMKGLGHAILTGRPLIGDEPFAVVLADDLCLNLEGDSVLKQMVKLYNQFRCSIVAIQEVPPEETNKYGVIAGEMIRDDIFRVNTMVEKPKPEEAPSNLAIIGRYILTPDIFDLIEQTEPGKGGEIQITDALMKQAQDGCVLAYKFKGKRFDCGSAEGYIEATNFCYENLYKTGKAH | 7.6 % of WT | – | 3.6 | – | –
4 | PaUGP D67A + R101A double mutant (enzyme, UDP-glucose pyrophosphorylase of Pseudomonas aeruginosa (galU), residues 1-279, double mutant of Strep-PaUGP; Same construct as m1; source: E. coli BL21(DE3), purified (Strep-Tactin Sepharose); not shown: Strep-tagII, N-terminal, kept) MIKKCLFPAAGYGTRFLPATKAMPKEMLPVVNKPLIQYAVEEALEAGLSEIGIVTGRGKRSLEDHFAISYELEHQIRNTDKEKYLVGIRRLIDECTFAYTAQVEMKGLGHAILTGRPLIGDEPFAVVLADDLCLNLEGDSVLKQMVKLYNQFRCSIVAIQEVPPEETNKYGVIAGEMIRDDIFRVNTMVEKPKPEEAPSNLAIIGRYILTPDIFDLIEQTEPGKGGEIQITDALMKQAQDGCVLAYKFKGKRFDCGSAEGYIEATNFCYENLYKTGKAH | 1.57 % of WT | – | 2 | – | –
5 | PaUGP Q75A (enzyme, UDP-glucose pyrophosphorylase of Pseudomonas aeruginosa (galU), residues 1-279, point mutant of Strep-PaUGP; Same construct as m1; source: E. coli BL21(DE3), purified (Strep-Tactin Sepharose); not shown: Strep-tagII, N-terminal, kept) MIKKCLFPAAGYGTRFLPATKAMPKEMLPVVNKPLIQYAVEEALEAGLSEIGIVTGRGKRSLEDHFDISYELEHAIRNTDKEKYLVGIRRLIDECTFAYTRQVEMKGLGHAILTGRPLIGDEPFAVVLADDLCLNLEGDSVLKQMVKLYNQFRCSIVAIQEVPPEETNKYGVIAGEMIRDDIFRVNTMVEKPKPEEAPSNLAIIGRYILTPDIFDLIEQTEPGKGGEIQITDALMKQAQDGCVLAYKFKGKRFDCGSAEGYIEATNFCYENLYKTGKAH | – | 4 | 4.2 | 1.2 | –
6 | PaUGP K59A (enzyme, UDP-glucose pyrophosphorylase of Pseudomonas aeruginosa (galU), residues 1-279, point mutant of Strep-PaUGP; Same construct as m1; source: E. coli BL21(DE3), purified (Strep-Tactin Sepharose); not shown: Strep-tagII, N-terminal, kept) MIKKCLFPAAGYGTRFLPATKAMPKEMLPVVNKPLIQYAVEEALEAGLSEIGIVTGRGARSLEDHFDISYELEHQIRNTDKEKYLVGIRRLIDECTFAYTRQVEMKGLGHAILTGRPLIGDEPFAVVLADDLCLNLEGDSVLKQMVKLYNQFRCSIVAIQEVPPEETNKYGVIAGEMIRDDIFRVNTMVEKPKPEEAPSNLAIIGRYILTPDIFDLIEQTEPGKGGEIQITDALMKQAQDGCVLAYKFKGKRFDCGSAEGYIEATNFCYENLYKTGKAH | 2.31 % of WT | 4 | 3.6 | – | –
7 | PaUGP N266A (enzyme, UDP-glucose pyrophosphorylase of Pseudomonas aeruginosa (galU), residues 1-279, point mutant of Strep-PaUGP; Same construct as m1; source: E. coli BL21(DE3), purified (Strep-Tactin Sepharose); not shown: Strep-tagII, N-terminal, kept) MIKKCLFPAAGYGTRFLPATKAMPKEMLPVVNKPLIQYAVEEALEAGLSEIGIVTGRGKRSLEDHFDISYELEHQIRNTDKEKYLVGIRRLIDECTFAYTRQVEMKGLGHAILTGRPLIGDEPFAVVLADDLCLNLEGDSVLKQMVKLYNQFRCSIVAIQEVPPEETNKYGVIAGEMIRDDIFRVNTMVEKPKPEEAPSNLAIIGRYILTPDIFDLIEQTEPGKGGEIQITDALMKQAQDGCVLAYKFKGKRFDCGSAEGYIEATAFCYENLYKTGKAH | 64.9 % of WT | – | 4 | 1.2 | –
8 | PaUGP K21A + R101A double mutant (enzyme) MIKKCLFPAAGYGTRFLPATAAMPKEMLPVVNKPLIQYAVEEALEAGLSEIGIVTGRGKRSLEDHFDISYELEHQIRNTDKEKYLVGIRRLIDECTFAYTAQVEMKGLGHAILTGRPLIGDEPFAVVLADDLCLNLEGDSVLKQMVKLYNQFRCSIVAIQEVPPEETNKYGVIAGEMIRDDIFRVNTMVEKPKPEEAPSNLAIIGRYILTPDIFDLIEQTEPGKGGEIQITDALMKQAQDGCVLAYKFKGKRFDCGSAEGYIEATNFCYENLYKTGKAH | 0.32 % of WT | – | – | – | –
9 | PaUGP N32D (enzyme, UDP-glucose pyrophosphorylase of Pseudomonas aeruginosa (galU), residues 1-279, point mutant of Strep-PaUGP; Same construct as m1; source: E. coli BL21(DE3), purified (Strep-Tactin Sepharose); not shown: Strep-tagII, N-terminal, kept) MIKKCLFPAAGYGTRFLPATKAMPKEMLPVVDKPLIQYAVEEALEAGLSEIGIVTGRGKRSLEDHFDISYELEHQIRNTDKEKYLVGIRRLIDECTFAYTRQVEMKGLGHAILTGRPLIGDEPFAVVLADDLCLNLEGDSVLKQMVKLYNQFRCSIVAIQEVPPEETNKYGVIAGEMIRDDIFRVNTMVEKPKPEEAPSNLAIIGRYILTPDIFDLIEQTEPGKGGEIQITDALMKQAQDGCVLAYKFKGKRFDCGSAEGYIEATNFCYENLYKTGKAH | 110 % of WT | – | 4.7 | 1.4 | –
10 | PaUGP D67A (enzyme, UDP-glucose pyrophosphorylase of Pseudomonas aeruginosa (galU), residues 1-279, point mutant of Strep-PaUGP; Same construct as m1; source: E. coli BL21(DE3), purified (Strep-Tactin Sepharose); not shown: Strep-tagII, N-terminal, kept) MIKKCLFPAAGYGTRFLPATKAMPKEMLPVVNKPLIQYAVEEALEAGLSEIGIVTGRGKRSLEDHFAISYELEHQIRNTDKEKYLVGIRRLIDECTFAYTRQVEMKGLGHAILTGRPLIGDEPFAVVLADDLCLNLEGDSVLKQMVKLYNQFRCSIVAIQEVPPEETNKYGVIAGEMIRDDIFRVNTMVEKPKPEEAPSNLAIIGRYILTPDIFDLIEQTEPGKGGEIQITDALMKQAQDGCVLAYKFKGKRFDCGSAEGYIEATNFCYENLYKTGKAH | 3.31 % of WT | – | 2.3 | – | 5.5
11 | PaUGP H74F (enzyme, UDP-glucose pyrophosphorylase of Pseudomonas aeruginosa (galU), residues 1-279, point mutant of Strep-PaUGP; Same construct as m1; source: E. coli BL21(DE3), purified (Strep-Tactin Sepharose); not shown: Strep-tagII, N-terminal, kept) MIKKCLFPAAGYGTRFLPATKAMPKEMLPVVNKPLIQYAVEEALEAGLSEIGIVTGRGKRSLEDHFDISYELEFQIRNTDKEKYLVGIRRLIDECTFAYTRQVEMKGLGHAILTGRPLIGDEPFAVVLADDLCLNLEGDSVLKQMVKLYNQFRCSIVAIQEVPPEETNKYGVIAGEMIRDDIFRVNTMVEKPKPEEAPSNLAIIGRYILTPDIFDLIEQTEPGKGGEIQITDALMKQAQDGCVLAYKFKGKRFDCGSAEGYIEATNFCYENLYKTGKAH | – | 4 | 3.5 | 1.1 | –
12 | PaUGP Q75E (enzyme, UDP-glucose pyrophosphorylase of Pseudomonas aeruginosa (galU), residues 1-279, point mutant of Strep-PaUGP; Same construct as m1; source: E. coli BL21(DE3), purified (Strep-Tactin Sepharose); not shown: Strep-tagII, N-terminal, kept) MIKKCLFPAAGYGTRFLPATKAMPKEMLPVVNKPLIQYAVEEALEAGLSEIGIVTGRGKRSLEDHFDISYELEHEIRNTDKEKYLVGIRRLIDECTFAYTRQVEMKGLGHAILTGRPLIGDEPFAVVLADDLCLNLEGDSVLKQMVKLYNQFRCSIVAIQEVPPEETNKYGVIAGEMIRDDIFRVNTMVEKPKPEEAPSNLAIIGRYILTPDIFDLIEQTEPGKGGEIQITDALMKQAQDGCVLAYKFKGKRFDCGSAEGYIEATNFCYENLYKTGKAH | – | – | 3.5 | – | –
13 | PaUGP K59R (enzyme, UDP-glucose pyrophosphorylase of Pseudomonas aeruginosa (galU), residues 1-279, point mutant of Strep-PaUGP; Same construct as m1; source: E. coli BL21(DE3), purified (Strep-Tactin Sepharose); not shown: Strep-tagII, N-terminal, kept) MIKKCLFPAAGYGTRFLPATKAMPKEMLPVVNKPLIQYAVEEALEAGLSEIGIVTGRGRRSLEDHFDISYELEHQIRNTDKEKYLVGIRRLIDECTFAYTRQVEMKGLGHAILTGRPLIGDEPFAVVLADDLCLNLEGDSVLKQMVKLYNQFRCSIVAIQEVPPEETNKYGVIAGEMIRDDIFRVNTMVEKPKPEEAPSNLAIIGRYILTPDIFDLIEQTEPGKGGEIQITDALMKQAQDGCVLAYKFKGKRFDCGSAEGYIEATNFCYENLYKTGKAH | 1.66 % of WT | – | 4 | – | –
14 | PaUGP Y70A (enzyme, UDP-glucose pyrophosphorylase of Pseudomonas aeruginosa (galU), residues 1-279, point mutant of Strep-PaUGP; Same construct as m1; source: E. coli BL21(DE3), purified (Strep-Tactin Sepharose); not shown: Strep-tagII, N-terminal, kept) MIKKCLFPAAGYGTRFLPATKAMPKEMLPVVNKPLIQYAVEEALEAGLSEIGIVTGRGKRSLEDHFDISAELEHQIRNTDKEKYLVGIRRLIDECTFAYTRQVEMKGLGHAILTGRPLIGDEPFAVVLADDLCLNLEGDSVLKQMVKLYNQFRCSIVAIQEVPPEETNKYGVIAGEMIRDDIFRVNTMVEKPKPEEAPSNLAIIGRYILTPDIFDLIEQTEPGKGGEIQITDALMKQAQDGCVLAYKFKGKRFDCGSAEGYIEATNFCYENLYKTGKAH | 4.08 % of WT | – | 2.5 | 1.3 | 3.8
15 | PaUGP E63D (enzyme, UDP-glucose pyrophosphorylase of Pseudomonas aeruginosa (galU), residues 1-279, point mutant of Strep-PaUGP; Same construct as m1; source: E. coli BL21(DE3), purified (Strep-Tactin Sepharose); not shown: Strep-tagII, N-terminal, kept) MIKKCLFPAAGYGTRFLPATKAMPKEMLPVVNKPLIQYAVEEALEAGLSEIGIVTGRGKRSLDDHFDISYELEHQIRNTDKEKYLVGIRRLIDECTFAYTRQVEMKGLGHAILTGRPLIGDEPFAVVLADDLCLNLEGDSVLKQMVKLYNQFRCSIVAIQEVPPEETNKYGVIAGEMIRDDIFRVNTMVEKPKPEEAPSNLAIIGRYILTPDIFDLIEQTEPGKGGEIQITDALMKQAQDGCVLAYKFKGKRFDCGSAEGYIEATNFCYENLYKTGKAH | 5.68 % of WT | 4 | 3.9 | 1.3 | –
